Results as given in US20100203055A1, “HAIR REGROWTH PROMOTER” (priority 2007, published 2010).
Entries after “also recorded” stand apart in the source; their conditions may differ. Each block holds one molecule with its values, some of them ahead of it.

Columns and labels:
[1] = system: human dermal papilla cells (HFDP); assay: Effect of FGF18 on gene expression of hair follicle growth promoting factors in dermal papilla cells; assay type: cell-based; settings: dermal papilla cells cultured 24 hr with FGF18, then medium deprived of FGF18, versus continued FGF18-containing medium
Procedure: Cultured human dermal papilla cells (HFDP; from adult human scalp; Toyobo) were subcultured in HFDP growth medium (20% fetal bovine serum-containing basal medium for dermal papilla cell; Toyobo) and used in experiments within two passages. The cells were treated with trypsin and seeded in collagen-coated dishes (Sumilon; 6 cm in diameter) at 4×10^5 cells/dish. The cells were maintained at 37° C. in HFDP medium. On the next day, the medium was exchanged for HEK medium (EpiLife™, 0.06 mM CaCl2, 10 μg/ml insulin, 0.1 ng/ml hEGF, 0.5 μg/ml hydrocortisone, 0.4% BPE), and then FGF18 was added to the medium. After the cells were cultured for 24 hr, the medium was exchanged for FGF18 free medium in the test sample group (“-FGF18”). The control group (“Control”) was cultured continuously in the FGF18-containing medium. Subsequently, the cells were harvested and the mRNA was extracted and purified. The expression levels of mRNA from VEGF (known as a hair follicle growth promoting factor) and noggin (known as a hair growth inhibiting factor) contained in the resultant mRNA were analyzed.

hair follicles = settings: single administration to mouse skin in telogen phase; Non-Patent Document 19 and Patent Document 2; cited from earlier work
hair follicle growth = assay: Hair growth inhibiting effect by continuous administration of FGF18 in anagen phase-induced C3H/HeN mice; assay type: in vivo, mouse
Procedure: In order to examine the effect of FGF18 in vivo on hair follicle growth, FGF18 protein dissolved in phosphate buffered physiological saline (PBS) was administered to hair follicle anagen phase-induced mice. Briefly, dorsal hair of 50 day-old C3H/HeN male mice in telogen phase was depilated gently with fingers to thereby induce the start of hair follicle anagen phase. Then, FGF18 solution was injected into the dorsal skin subcutaneously from the vicinity of the tail (1 μg of FGF18 per mouse). The mice were maintained on a diet and water ad libitum. Starting from this day, FGF18 solution was injected subcutaneously into the dorsal skin every day at about the same time for consecutive 8 days. The control group received injection of PBS instead of FGF18. Nine days after the initial injection, the mice were euthanized under anesthesia. Full thickness skin samples were excised from the dorsal part and embedded in paraffin. The thus embedded skin samples were sliced into 4 μm thick sections with a microtome, stained with hematoxylin and observed under microscope.

FGFR3c = assay: Inhibition of FGF18-stimulated DNA synthesis (cell growth) in FGFR3c/BaF3 cells by FGF18 partial peptides; assay type: cell-based, mouse
Description: (§1) According to teachings disclosed in literature, the FGF receptor genes FGFR1c, FGFR2c, FGFR3c and FGFR4 were respectively introduced by means of genetic engineering into Ba/F3 cell strain (obtained from RIKEN BRC) which is mouse IL-3-dependent proB cell to thereby prepare cells on whose surface FGFR was compulsively expressed (Ornitz, D M., Xu, J., Colvin, J S., McEwen, D G, MacArthur, C A., Coulier, E, Gao, G. and Goldfarb, M., 1996. Receptor specificity of the fibroblast growth factor family. J. Biol. Chem. 271(25):15292-15297; Yoneda, A., Asada, M., Oda, Y, Suzuki, M. and Imamura, T., 2000. Engineering of an FGF-proteoglycan fusion protein with heparin-independent, mitogenic activity. Nat. Biotec. 18(6):641-644).
(§2) Using these cells, the antagonist activity of test samples [whether or not test samples inhibit the DNA synthesis of FGF18-stimulated cell (this is taken as 100%)] was examined while stimulating each receptor with 30 ng/ml FGF18, in the co-presence of each partial peptide of FGF18 at 1 μg/ml (FIG. 3A) or at 100 ng/ml (FIG. 3B). Briefly, an activity that inhibits the cell growth stimulating effect of FGF18 was analyzed. Correspondence between individual columns and test samples is as described below.

FGFR4 = target: T1, FGFR4 (Homo sapiens, UniProt P22455); assay: Inhibition of FGF18-stimulated DNA synthesis (cell growth) in FGFR4/BaF3 cells by FGF18 partial peptides; assay type: cell-based, mouse; settings: test sample 1 μg/ml, 30 ng/ml FGF18, FIG. 3A
T1 construct: expressed in transfected cells; host or cells: Ba/F3 (mouse IL-3-dependent proB cell); R4/Ba/F3 cells under G-418
T1 sequence (P22455 22-802, species assumed): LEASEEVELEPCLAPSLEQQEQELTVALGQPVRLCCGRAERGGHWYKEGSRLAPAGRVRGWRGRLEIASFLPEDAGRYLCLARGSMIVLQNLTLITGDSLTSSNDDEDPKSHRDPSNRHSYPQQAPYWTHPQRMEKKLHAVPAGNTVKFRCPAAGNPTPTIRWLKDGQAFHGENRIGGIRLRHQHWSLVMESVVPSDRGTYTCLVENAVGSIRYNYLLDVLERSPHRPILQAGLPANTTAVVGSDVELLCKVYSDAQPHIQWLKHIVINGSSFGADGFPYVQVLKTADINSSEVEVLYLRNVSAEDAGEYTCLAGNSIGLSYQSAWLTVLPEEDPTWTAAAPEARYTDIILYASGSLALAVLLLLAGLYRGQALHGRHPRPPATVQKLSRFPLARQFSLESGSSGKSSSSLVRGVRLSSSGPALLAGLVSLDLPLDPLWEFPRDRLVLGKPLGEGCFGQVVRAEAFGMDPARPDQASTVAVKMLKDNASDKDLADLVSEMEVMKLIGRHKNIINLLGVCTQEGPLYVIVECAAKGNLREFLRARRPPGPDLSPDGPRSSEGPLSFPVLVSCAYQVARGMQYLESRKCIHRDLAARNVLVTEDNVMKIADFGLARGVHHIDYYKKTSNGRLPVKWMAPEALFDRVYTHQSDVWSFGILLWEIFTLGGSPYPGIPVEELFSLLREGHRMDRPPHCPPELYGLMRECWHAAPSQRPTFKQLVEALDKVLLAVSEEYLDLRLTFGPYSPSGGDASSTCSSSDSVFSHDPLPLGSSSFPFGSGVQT
Description: as §1, §2

[2] = test sample 1 μg/ml, 30 ng/ml FGF18, FIG. 3A
[3] = test sample 100 ng/ml, 30 ng/ml FGF18, FIG. 3B

B1: FGF18: fibroblast growth factor 18 protein; secreted polypeptide of 181 amino acids; commercial FGF18 (PeproTech) used (protein)
chain: EENVDFRIHVENQTRARDDVSRKQLRLYQLYSRTSGKHIQVLGRRISARGEDGDKYAQLLVETDTFGSQVRIKGKETEFYLCMNRKGKLVGKPDGTSKECVFIEKVLENNYTALMSAKYSGWYVGFTKKGRPRKGPKTRENQQDVHFMKRYPKGQPELQKPFKYTTVTKRSRRIRPTHPA
expression level of VEGF mRNA [1]: 4.8 fold
expression level of noggin mRNA [1]: 3.5 fold
hair regrowth after single administration (hair follicles): induces hair regrowth
hair growth / hair follicle growth (hair follicle growth; 1 μg FGF18 per mouse subcutaneously once a day for 8 days after depilation, observed at day 9, versus PBS): hair growth is strongly inhibited; also recorded: hair growth was markedly inhibited
growth of hair follicles after stopping FGF18 administration (hair follicle growth; continuous administration under the same conditions, then stopped and mice raised thereafter): growth of hair follicles occurred

B3: d16: partial peptide of mouse FGF18, 16 amino acids deleted from N-terminus; SEQ ID NO: 17 (protein)
chain: MARDDVSRKQLRLYQLYSRTSGKHIQVLGRRISARGEDGDKYAQLLVETDTFGSQVRIKGKETEFYLCMNRKGKLVGKPDGTSKECVFIEKVLENNYTALMSAKYSGWYVGFTKKGRPRKGPKTRENQQDVHFMKRYPKGQAELQKPFKYTTVTKRSRRIRPTHPG
modifications: truncation mutant polypeptide of mouse FGF18(d16)
inhibition of the activity of FGF18 on FGFR3c/BaF3 cells (FGFR3c; [3]): strongly inhibit
inhibition of the activity of FGF18 on FGFR3c/BaF3 cells (FGFR3c; [2]): strongly inhibit

B4: d37: partial peptide of mouse FGF18, 37 amino acids deleted from N-terminus; SEQ ID NO: 20 (protein)
chain: MKHIQVLGRRISARGEDGDKYAQLLVETDTFGSQVRIKGKETEFYLCMNRKGKLVGKPDGTSKECVFIEKVLENNYTALMSAKYSGWYVGFTKKGRPRKGPKTRENQQDVHFMKRYPKGQAELQKPFKYTTVTKRSRRIRPTHPG
modifications: truncation mutant polypeptide of mouse FGF18(d37)
inhibition of the activity of FGF18 on FGFR3c/BaF3 cells (FGFR3c; [2]): strongly inhibit

B5: d77: partial peptide of mouse FGF18, 77 amino acids deleted from N-terminus; SEQ ID NO: 23 (protein)
chain: MTEFYLCMNRKGKLVGKPDGTSKECVFIEKVLENNYTALMSAKYSGWYVGFTKKGRPRKGPKTRENQQDVHFMKRYPKGQAELQKPFKYTTVTKRSRRIRPTHPG
modifications: truncation mutant polypeptide of mouse FGF18(d77)
inhibition of the activity of FGF18 on FGFR3c/BaF3 cells (FGFR3c; [2]): strongly inhibit
inhibition of the activity of FGF18 on FGFR4/BaF3 cells (FGFR4): strongly inhibit

More lines, main results first:

inhibition of the activity of FGF18 on FGFR4/BaF3 cells (FGFR4): strongly inhibit
B2: d48: partial peptide of mouse FGF18, 48 amino acids deleted from N-terminus; SEQ ID NO: 21 (protein)
chain: MARGEDGDKYAQLLVETDTFGSQVRIKGKETEFYLCMNRKGKLVGKPDGTSKECVFIEKVLENNYTALMSAKYSGWYVGFTKKGRPRKGPKTRENQQDVHFMKRYPKGQAELQKPFKYTTVTKRSRRIRPTHPG
modifications: truncation mutant polypeptide of mouse FGF18(d48)
inhibition of the activity of FGF18 on FGFR3c/BaF3 cells (FGFR3c; [2]): strongly inhibit

inhibition of the activity of FGF18 on FGFR4/BaF3 cells (FGFR4): strongly inhibit
B6: d22: partial peptide of mouse FGF18, 22 amino acids deleted from N-terminus; SEQ ID NO: 19 (protein)
chain: MRKQLRLYQLYSRTSGKHIQVLGRRISARGEDGDKYAQLLVETDTFGSQVRIKGKETEFYLCMNRKGKLVGKPDGTSKECVFIEKVLENNYTALMSAKYSGWYVGFTKKGRPRKGPKTRENQQDVHFMKRYPKGQAELQKPFKYTTVTKRSRRIRPTHPG
modifications: truncation mutant polypeptide of mouse FGF18(d22)
inhibition of the activity of FGF18 on FGFR3c/BaF3 cells (FGFR3c; [2]): strongly inhibit

inhibition of the activity of FGF18 on FGFR4/BaF3 cells (FGFR4): strongly inhibit
B7: d95: partial peptide of mouse FGF18, 95 amino acids deleted from N-terminus; SEQ ID NO: 24 (protein)
chain: MGTSKECVFIEKVLENNYTALMSAKYSGWYVGFTKKGRPRKGPKTRENQQDVHFMKRYPKGQAELQKPFKYTTVTKRSRRIRPTHPG
modifications: truncation mutant polypeptide of mouse FGF18(d95)
inhibition of the activity of FGF18 on FGFR3c/BaF3 cells (FGFR3c; [3]): strongly inhibit
inhibition of the activity of FGF18 on FGFR3c/BaF3 cells (FGFR3c; [2]): strongly inhibit
